Broadly, the Kd is the free concentration of one partner at which half of the binding sites on the other are occupied at equilibrium, for simple one-to-one binding. Higher therefore signals lower affinity.

The values below come from publication PMC9714666 (Frontiers in Immunology, 2022).

Assay [1] has as its target T1, SARS-CoV-2 Omicron (B.1.1.529) RBD, biotinylated (SARS-CoV-2 Omicron B.1.1.529 (BA.1), strain, biotinylated).
T1 construct: source: bought: ACRObiosystems
Briefly: BLI. The conditions noted are these: both partners purified.

Assay [2] deals with T2, SARS-CoV-2 Omicron BA.5 RBD, biotinylated (SARS-CoV-2 Omicron BA.5, strain, biotinylated).
T2 construct: source: bought: ACRObiosystems
Briefly: BLI. The conditions noted are these: both partners purified.

B1: D27LEY (antibody, V domains shown)
VH: QVQLQQSGAEVKKPGSSVKVSCKASGGTFGNWSISWVRQAPGQGLEWMGGIAPGRGEATYAQKFQGRVTITTDESTSTAYMELSSLRSEDTAVYYCARETWYTSGGMDVWGQGTTVTVSS
VL: SYELTQPPSVSVAPGKTARITCGGNNIGRKSVHWYQQKPGQAPVLVVYDDSDRPSGIPERFSGSNSGNTATLTISRVEAGDEADYYCQVYDLWSSDYVFGTGTKVEIK
Regarding B1, the results for the Kd in assay [1] and in assay [2] were 340 pM and 370 pM, respectively.
